From publication PMC4982705 (Biochemical pharmacology, 2016) come the findings set out here.

The data set concerns the molecule itself. The data set can be described thus: SEC.

B1: wildtype human SULT1B1 (enzyme)
chain: not shown
The stoichiometry N is the number of molecules, sites or subunits per partner or assembly. For the protein B1, the “stoichiometry N” value turned out to be 2.
